The record followed here is publication PMC12022973 (2025).

Positions of bridges follow the written chain, without caps; N, C: chain ends. Chains are numbered I, II in the order given. No end group written: not given here.

The assay has as its target preformed MYC/MAX heterodimer (human | , UniProt P61244 1-160). The experiment in a line: FP.

Chain of preformed MYC/MAX heterodimer (chain, as listed by the source, chain 1 of 2): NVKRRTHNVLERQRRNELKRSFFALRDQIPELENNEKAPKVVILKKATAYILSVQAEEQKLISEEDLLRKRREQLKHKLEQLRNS
Chain of preformed MYC/MAX heterodimer (P61244 2-160, chain 2 of 2): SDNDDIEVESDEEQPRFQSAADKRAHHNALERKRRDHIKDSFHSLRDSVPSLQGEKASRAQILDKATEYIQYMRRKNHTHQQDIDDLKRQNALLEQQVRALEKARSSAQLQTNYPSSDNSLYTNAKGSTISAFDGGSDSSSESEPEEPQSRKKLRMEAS

B1: fluorescein-labeled CHD^Max-1 (cross-linked helix dimer derived from MAX) (designed binder)
chain 1: LREKIATLQWCIEELRK
chain 2: LRRKNETHQWEIEELC
modifications: bridge I:11-II:16; not fully specified (bridges); also: fluorescein label, chain and position not given here
For orientation: Kd means the concentration at which binding is half-saturated. Low values mean a tighter complex, high ones a looser complex. B1 registered a dissociation constant Kd of 460 nM.
